{"source": "paper PMC2190585", "about": "(The Journal of Cell Biology, 2000)", "binders": {"B1": {"name": "GST–α ear (GST fusion protein containing aa 715–977 of the mouse α adaptin) (domain or fragment, UniProt P17426 715-977, looked up)", "chain": "PMALLADPAPAADPGPEDIGPPIPEADELLNKFVCKNSGVLFENQLLQIGVKSEFRQNLGRMYLFYGNKTSVQFQNFLPTVVHPGDLQTQLAVQTKRVAAQVDGGAQVQQVLNIECLRDFLTPPLLSVRFRYGGTAQSLTLKLPVTINKFFQPTEMAAQDFFQRWKQLSLPLQEAQKIFKANHPMDAEVTKAKLLGFGSALLDNVDPNPENFVGAGIIQTKALQVGCLLRLEPNAQAQMYRLTLRTSKEPVSRHLCELLAQQF"}}, "biological_target": "T1, COOH-terminal domain of Numb (aa 298–603), purified (human, UniProt P49757-2 298-603)", "T1 sequence (looked up)": "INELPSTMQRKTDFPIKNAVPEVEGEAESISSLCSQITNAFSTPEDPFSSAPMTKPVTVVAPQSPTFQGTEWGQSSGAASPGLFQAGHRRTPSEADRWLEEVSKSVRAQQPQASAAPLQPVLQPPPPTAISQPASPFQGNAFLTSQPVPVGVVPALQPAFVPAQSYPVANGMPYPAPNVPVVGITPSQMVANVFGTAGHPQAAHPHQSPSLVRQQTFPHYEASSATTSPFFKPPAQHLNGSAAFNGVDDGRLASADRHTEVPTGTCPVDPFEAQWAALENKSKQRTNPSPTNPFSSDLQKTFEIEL", "test": "pull-down", "data": [{"binder": "B1", "values": [{"measurement": "binding result", "value": "binds"}]}]}
